Assay results reported in patent US20160000936A1.
pIC50: −log10 of the molar value.

Molecular target: murine IL-17 (mouse) (UniProt Q62386)
Assay: assay not described; table titled 'Source And Binding Information'

Sequence of murine IL-17 (mouse) (Q62386 26-158 limits assumed): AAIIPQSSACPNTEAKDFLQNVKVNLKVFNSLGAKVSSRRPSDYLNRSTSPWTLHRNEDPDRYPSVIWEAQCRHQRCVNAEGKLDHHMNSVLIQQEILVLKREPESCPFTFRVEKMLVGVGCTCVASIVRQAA

anti-murine IL-17 antibody MAB421
pIC50: 9.15
